Literature values, collected in paper PMC3726680.

Biological target: HER2 (Homo sapiens) (UniProt P04626)

For trastuzumab, the Kd is listed as 0.1 nM.
